Experimental data published in the supplement of paper PMC12458215.
± gives the uncertainty stated by the source.

System: HEK293T
Test: plasma membrane surface immunostaining intensity (anti-HA, deep receptor scanning) (arbitrary fluorescence units); higher = higher plasma membrane expression

Sequence: MERINHTSSVSEFILLGLSSRPEDQKTLFVLFLIVYLVTITGNLLIILAIRFNPHLQTPMYFFLSFLSLTDICFTTSVVPKMLMNFLSEKKTISYAGCLTQMYFLYALGNSDSCLLAVMAFDRYVAVCDPFHYVTTMSHHHCVLLVAFSCSFPHLHSLLHTLLLNRLTFCDSNVIHHFLCDLSPVLKLSCSSIFVNEIVQMTEAPIVLVTRFLCIAFSYIRILTTVLKIPSTSGKRKAFSTCGFYLTVVTLFYGSIFCVYLQPPSTYAVKDHVATIVYTVLSSMLNPFIYSLRNKDLKQGLRKLMSKRS [OR1L8]
- plasma membrane surface immunostaining intensity (GPCR class: A (Olfactory)): 177 ± 72

Sequence: MEIVSTGNETITEFVLLGFYDIPELHFLFFIVFTAVYVFIIIGNMLIIVAVVSSQRLHKPMYIFLANLSFLDILYTSAVMPKMLEGFLQEATISVAGCLLQFFIFGSLATAECLLLAVMAYDRYLAICYPLHYPLLMGPRRYMGLVVTTWLSGFVVDGLVVALVAQLRFCGPNHIDQFYCDFMLFVGLACSDPRVAQVTTLILSVFCLTIPFGLILTSYARIVVAVLRVPAGASRRRAFSTCSSHLAVVTTFYGTLMIFYVAPSAVHSQLLSKVFSLLYTVVTPLFNPVIYTMRNKEVHQALRKILCIKQTETLD [OR11A1]
- plasma membrane surface immunostaining intensity (GPCR class: A (Olfactory)): 398 ± 120

Sequence: MSNATLLTAFILTGLPHAPGLDAPLFGIFLVVYVLTVLGNLLILLVIRVDSHLHTPMYYFLTNLSFIDMWFSTVTVPKMLMTLVSPSGRTISFHSCVAQLYFFHFLGSTECFLYTVMSYDRYLAISYPLRYTNMMTGRSCALLATGTWLSGSLHSAVQTILTFHLPYCGPNQIQHYFCDAPPILKLACADTSANEMVIFVNIGLVASGCFVLIVLSYVSIVCSILRIRTSEGRHRAFQTCASHCIVVLCFFGPGLFIYLRPGSRDALHGVVAVFYTTLTPLFNPVVYTLRNKEVKKALLKLKNGSVFAQGE [OR10G7]
- plasma membrane surface immunostaining intensity (GPCR class: A (Olfactory)): 315 ± 110

Sequence: MGNWSTVTEITLIAFPALLEIRISLFVVLVVTYTLTATGNITIISLIWIDHRLQTPMYFFLSNLSFLDILYTTVITPKLLACLLGEEKTISFAGCMIQTYFYFFLGTVEFILLAVMSFDRYMAICDPLHYTVIMNSRACLLLVLGCWVGAFLSVLFPTIVVTRLPYCRKEINHFFCDIAPLLQVACINTHLIEKINFLLSALVILSSLAFTTGSYVYIISTILRIPSTQGRQKAFSTCASHITVVSIAHGSNIFVYVRPNQNSSLDYDKVAAVLITVVTPLLNPFIYSLRNEKVQEVLRETVNRIMTLIQRKT [OR6M1]
- plasma membrane surface immunostaining intensity (GPCR class: A (Olfactory)): 127 ± 27

Sequence: MAGNNFTEVTVFILSGFANHPELQVSLFLMFLFIYLFTVLGNLGLITLIRMDSQLHTPMYFFLSNLAFIDIFYSSTVTPKALVNFQSNRRSISFVGCFVQMYFFVGLVCCECFLLGSMAYNRYIAICNPLLYSVVMSQKVSNWLGVMPYVIGFTSSLISVWVISSLAFCDSSINHFFCDTTALLALSCVDTFGTEMVSFVLAGFTLLSSLLIITVTYIIIISAILRIQSAAGRQKAFSTCASHLMAVTIFYGSLIFTYLQPDNTSSLTQAQVASVFYTIVIPMLNPLIYSLRNKDVKNALLRVIHRKLFP [OR8I2]
- plasma membrane surface immunostaining intensity (GPCR class: A (Olfactory)): 189 ± 85

Sequence: MTNSSFFCPVYKDLEPFTYFFYLVFLVGIIGSCFATWAFIQKNTNHRCVSIYLINLLTADFLLTLALPVKIVVDLGVAPWKLKIFHCQVTACLIYINMYLSIIFLAFVSIDRCLQLTHSCKIYRIQEPGFAKMISTVVWLMVLLIMVPNMMIPIKDIKEKSNVGCMEFKKEFGRNWHLLTNFICVAIFLNFSAIILISNCLVIRQLYRNKDNENYPNVKKALINILLVTTGYIICFVPYHIVRIPYTLSQTEVITDCSTRISLFKAKEATLLLAVSNLCFDPILYYHLSKAFRSKVTETFASPKETKAQKEKLRCENNA [GPR171]
- plasma membrane surface immunostaining intensity (GPCR class: A): 455 ± 49

Sequence: MRWLWPLAVSLAVILAVGLSRVSGGAPLHLGRHRAETQEQQSRSKRGTEDEEAKGVQQYVPEEWAEYPRPIHPAGLQPTKPLVATSPNPGKDGGTPDSGQELRGNLTGAPGQRLQIQNPLYPVTESSYSAYAIMLLALVVFAVGIVGNLSVMCIVWHSYYLKSAWNSILASLALWDFLVLFFCLPIVIFNEITKQRLLGDVSCRAVPFMEVSSLGVTTFSLCALGIDRFHVATSTLPKVRPIERCQSILAKLAVIWVGSMTLAVPELLLWQLAQEPAPTMGTLDSCIMKPSASLPESLYSLVMTYQNARMWWYFGCYFCLPILFTVTCQLVTWRVRGPPGRKSECRASKHEQCESQLNSTVVGLTVVYAFCTLPENVCNIVVAYLSTELTRQTLDLLGLINQFSTFFKGAITPVLLLCICRPLGQAFLDCCCCCCCEECGGASEASAANGSDNKLKTEVSSSIYFHKPRESPPLLPLGTPC [GPR37L1]
- plasma membrane surface immunostaining intensity (GPCR class: A): 148 ± 21

Sequence: MDGTNGSTQTHFILLGFSDRPHLERILFVVILIAYLLTLVGNTTIILVSRLDPHLHTPMYFFLAHLSFLDLSFTTSSIPQLLYNLNGCDKTISYMGCAIQLFLFLGLGGVECLLLAVMAYDRCVAICKPLHYMVIMNPRLCRGLVSVTWGCGVANSLAMSPVTLRLPRCGHHEVDHFLREMPALIRMACVSTVAIEGTVFVLAVGVVLSPLVFILLSYSYIVRAVLQIRSASGRQKAFGTCGSHLTVVSLFYGNIIYMYMQPGASSSQDQGMFLMLFYNIVTPLLNPLIYTLRNREVKGALGRLLLGKRELGKE [OR2W3]
- plasma membrane surface immunostaining intensity (GPCR class: A (Olfactory)): 129 ± 7.6

Sequence: MDISEGNKTLVTEFVLTGLTDRPWLHVLFFVVFLVVYLITMVGNLGLIVLIWNDPHLHMPMYLFLGGLAFSDACTSTSITPRMLVNFLDKTAMISLAECITQFYFFASSATTECFLLVMMAYDRYVAICNPLLYPVMMSNKLSAQLLSISYVIGFLHPLVHVSLLLRLTFCRFNIIHYFYCEILQLFKISCNGPSINALMIFIFGAFIQIPTLMTIIISYTRVLFDILKKKSEKGRSKAFSTCGAHLLSVSLYYGTLIFMYVRPASGLAEDQDKVYSLFYTIIIPLLNPFIYSLRNKKVMHALRRVIRK [OR5AC2]
- plasma membrane surface immunostaining intensity (GPCR class: A (Olfactory)): 166 ± 48

Sequence: MESENRTVIREFILLGLTQSQDIQLLVFVLVLIFYFIILPGNFLIIFTIKSDPGLTAPLYFFLGNLAFLDASYSFIVAPRMLVDFLSAKKIISYRGCITQLFFLHFLGGGEGLLLVVMAFDRYIAICRPLHYPTVMNPRTCYAMMLALWLGGFVHSIIQVVLILRLPFCGPNQLDNFFCDVPQVIKLACTDTFVVELLMVFNSGLMTLLCFLGLLASYAVILCRIRGSSSEAKNKAMSTCITHIIVIFFMFGPGIFIYTRPFRAFPADKVVSLFHTVIFPLLNPVIYTLRNQEVKASMKKVFNKHIA [OR4N2]
- plasma membrane surface immunostaining intensity (GPCR class: A (Olfactory)): 134 ± 28

Sequence: MSITKAWNSSSVTMFILLGFTDHPELQALLFVTFLGIYLTTLAWNLALIFLIRGDTHLHTPMYFFLSNLSFIDICYSSAVAPNMLTDFFWEQKTISFVGCAAQFFFFVGMGLSECLLLTAMAYDRYAAISSPLLYPTIMTQGLCTRMVVGAYVGGFLSSLIQASSIFRLHFCGPNIINHFFCDLPPVLALSCSDTFLSQVVNFLVVVTVGGTSFLQLLISYGYIVSAVLKIPSAEGRWKACNTCASHLMVVTLLFGTALFVYLRPSSSYLLGRDKVVSVFYSLVIPMLNPLIYSLRNKEIKDALWKVLERKKVFS [OR5A1]
- plasma membrane surface immunostaining intensity (GPCR class: A (Olfactory)): 122 ± 20

Sequence: MEWGYLLEVTSLLAALALLQRSSGAAAASAKELACQEITVPLCKGIGYNYTYMPNQFNHDTQDEAGLEVHQFWPLVEIQCSPDLKFFLCSMYTPICLEDYKKPLPPCRSVCERAKAGCAPLMRQYGFAWPDRMRCDRLPEQGNPDTLCMDYNRTDLTTAAPSPPRRLPPPPPGEQPPSGSGHGRPPGARPPHRGGGRGGGGGDAAAPPARGGGGGGKARPPGGGAAPCEPGCQCRAPMVSVSSERHPLYNRVKTGQIANCALPCHNPFFSQDERAFTVFWIGLWSVLCFVSTFATVSTFLIDMERFKYPERPIIFLSACYLFVSVGYLVRLVAGHEKVACSGGAPGAGGAGGAGGAAAGAGAAGAGAGGPGGRGEYEELGAVEQHVRYETTGPALCTVVFLLVYFFGMASSIWWVILSLTWFLAAGMKWGNEAIAGYSQYFHLAAWLVPSVKSIAVLALSSVDGDPVAGICYVGNQSLDNLRGFVLAPLVIYLFIGTMFLLAGFVSLFRIRSVIKQQDGPTKTHKLEKLMIRLGLFTVLYTVPAAVVVACLFYEQHNRPRWEATHNCPCLRDLQPDQARRPDYAVFMLKYFMCLVVGITSGVWVWSGKTLESWRSLCTRCCWASKGAAVGGGAGATAAGGGGGPGGGGGGGPGGGGGPGGGGGSLYSDVSTGLTWRSGTASSVSYPKQMPLSQV [FZD8]
- plasma membrane surface immunostaining intensity (GPCR class: F): 225 ± 23

Sequence: MDGSNVTSFVVEEPTNISTGRNASVGNAHRQIPIVHWVIMSISPVGFVENGILLWFLCFRMRRNPFTVYITHLSIADISLLFCIFILSIDYALDYELSSGHYYTIVTLSVTFLFGYNTGLYLLTAISVERCLSVLYPIWYRCHRPKYQSALVCALLWALSCLVTTMEYVMCIDREEESHSRNDCRAVIIFIAILSFLVFTPLMLVSSTILVVKIRKNTWASHSSKLYIVIMVTIIIFLIFAMPMRLLYLLYYEYWSTFGNLHHISLLFSTINSSANPFIYFFVGSSKKKRFKESLKVVLTRAFKDEMQPRRQKDNCNTVTVETVV [MAS1]
- plasma membrane surface immunostaining intensity (GPCR class: A): 782 ± 65

Sequence: MANITRMANHTGRLDFILMGLFRQSKHPALLSVVIFVVFLKALSGNAVLILLIHCDAHLHSPMYFFISQLSLMDMAYISVTVPKMLLDQVMGVNKVSAPECGMQMFLYLTLAGSEFFLLATMAYDRYVAICHPLRYPVLMNHRVCLFLASGCWFLGSVDGFMLTPITMSFPFCRSWEIHHFFCEVPAVTILSCSDTSLYETLMYLCCVLMLLIPVTIISSSYLLILLTVHRMNSAEGRKKAFATCSSHLTVVILFYGAAVYTYMLPSSYHTPEKDMMVSVFYTILTPVLNPLIYSLRNKDVMGALKKMLTVRFVL [OR2T29]
- plasma membrane surface immunostaining intensity (GPCR class: A (Olfactory)): 131 ± 21

Sequence: MANSASPEQNQNHCSAINNSIPLMQGNLPTLTLSGKIRVTVTFFLFLLSATFNASFLLKLQKWTQKKEKGKKLSRMKLLLKHLTLANLLETLIVMPLDGMWNITVQWYAGELLCKVLSYLKLFSMYAPAFMMVVISLDRSLAITRPLALKSNSKVGQSMVGLAWILSSVFAGPQLYIFRMIHLADSSGQTKVFSQCVTHCSFSQWWHQAFYNFFTFSCLFIIPLFIMLICNAKIIFTLTRVLHQDPHELQLNQSKNNIPRARLKTLKMTVAFATSFTVCWTPYYVLGIWYWFDPEMLNRLSDPVNHFFFLFAFLNPCFDPLIYGYFSL [GNRHR]
- plasma membrane surface immunostaining intensity (GPCR class: A): 160 ± 34

Sequence: MDQFPESVTENFEYDDLAEACYIGDIVVFGTVFLSIFYSVIFAIGLVGNLLVVFALTNSKKPKSVTDIYLLNLALSDLLFVATLPFWTHYLINEKGLHNAMCKFTTAFFFIGFFGSIFFITVISIDRYLAIVLAANSMNNRTVQHGVTISLGVWAAAILVAAPQFMFTKQKENECLGDYPEVLQEIWPVLRNVETNFLGFLLPLLIMSYCYFRIIQTLFSCKNHKKAKAIKLILLVVIVFFLFWTPYNVMIFLETLKLYDFFPSCDMRKDLRLALSVTETVAFSHCCLNPLIYAFAGEKFRRYLYHLYGKCLAVLCGRSVHVDFSSSESQRSRHGSVLSSNFTYHTSDGDALLLL [CX3CR1]
- plasma membrane surface immunostaining intensity (GPCR class: A): 196 ± 34

Sequence: MDPTTPAWGTESTTVNGNDQALLLLCGKETLIPVFLILFIALVGLVGNGFVLWLLGFRMRRNAFSVYVLSLAGADFLFLCFQIINCLVYLSNFFCSISINFPSFFTTVMTCAYLAGLSMLSTVSTERCLSVLWPIWYRCRRPRHLSAVVCVLLWALSLLLSILEGKFCGFLFSDGDSGWCQTFDFITAAWLIFLFMVLCGSSLALLVRILCGSRGLPLTRLYLTILLTVLVFLLCGLPFGIQWFLILWIWKDSDVLFCHIHPVSVVLSSLNSSANPIIYFFVGSFRKQWRLQQPILKLALQRALQDIAEVDHSEGCFRQGTPEMSRSSLV [MRGPRX2]
- plasma membrane surface immunostaining intensity (GPCR class: A): 359 ± 8.2
